In patent US10494657B2, “In vitro production of cyclic peptides” (The University Court of the University of Aberdeen, priority 2012, dated 2019):

What was measured:
[…] [1] = Macrocyclization reaction, final product ratios by LC-ESI MS ion counts; format: biochemical
Method: For macrocyclization reactions comparing final product ratios after substrate depletion, 100 μM peptide (VGAGIGFPAYDG) (SEQ ID NO: 68) was incubated with 50 μM enzyme in 150 mM NaCl, 10 mM HEPES pH 8, 1 mM TCEP for 120 h at 37° C. Samples were analyzed by ESI or MALDI MS (LCT, Micromass or 4800 MALDI TOF/TOF Analyser, ABSciex).
LC-MS was performed using a Phenomenex Sunfire C18 column (4.6 mm×150 mm). Solvent A was H2O containing 0.1% formic acid and solvent B was MeOH containing 0.1% formic acid. Gradient: 0-2 min 10% B; 2-22 min 10% B to 100% B; 22-27 min 100% B; 27-30 min 100% B to 10% B. High resolution mass spectral data were obtained from a Thermo Instruments MS system (LTQ XL/LTQ Orbitrap Discovery) coupled to a Thermo Instruments HPLC system (Accela PDA detector, Accela PDA autosampler and Accela Pump). The following conditions were used: capillary voltage 45 V, capillary temperature 320° C., auxiliary gas flow rate 10-20 arbitrary units, sheath gas flow rate 40-50 arbitrary units, spray voltage 4.5 kV, mass range 100-2000 amu (maximum resolution 30000).
The peptide VGAGIGFPAYDG (SEQ ID NO: 68) was used as a substrate for PatGmac in biochemical assays (FIG. 4C[[c]]). The ratio of macrocyclized to linear product using this substrate peptide was determined by ion counts obtained from liquid chromatography-electrospray ionization mass spectrometry (LC-ESI MS).

[…] [2] = Macrocyclization of substrate with modified recognition sequence (Asp to Arg); format: biochemical
Method: (§1) For other macrocyclization reactions, 100 μM peptide (e.g. VGAGIGFPAYDG (SEQ ID NO: 68), VGAGIGFPAYRG (SEQ ID NO: 69), or GVAGIGFPAYRG (SEQ ID NO: 84)) was incubated with 20 μM enzyme in a range of buffers for 24 h at 37° C. (see FIGS. 1 to 3).
PatGmac K598D produced cyclo[VGAGIGFP] with only 8% linear product, at a rate over an order of magnitude faster than wild-type PatGmac with VGAGIGFPAYDG (SEQ ID NO: 68) (FIGS. 2 and 3).

[…] [3] = Macrocyclization reaction rate in different buffers (LC-MS); format: biochemical
Method: as §1
PatGmac is a slow enzyme; turnover rates reported to date are ˜1 per day (Lee, J., McIntosh, J., Hathaway, B. J. & Schmidt, E. W., 2009; McIntosh, J. A. et al., 2010). […] Adding DMSO gave a small increase in rate but shifted the optimum pH, thus a buffer containing 500 mM NaCl and 5% DMSO at pH 8 gave a reaction rate over 50 times greater (FIG. 1C). Under these conditions, about 7% linearized VGAGIGFP (SEQ ID NO: 70) byproduct was observed which can be separated from cyclo[VGAGIGFP] (SEQ ID NO: 70) by HPLC.

PatE2/PatE2K = assay: C-terminal cleavage and macrocyclization of heterocyclized, N-terminally cleaved PatE2/PatE2K; format: biochemical; settings: 100 μM substrate, 20 μM PatGmac, 24 hours at 37° C., 20 mM Bicine pH 8.1, 500 mM NaCl, 5% DMSO
Method: The final stage in patellamide production is C-terminal cleavage and macrocyclization. This step is catalyzed by the PatGmac domain. In order to macrocyclize our single cassette we incubated 100 μM heterocyclized (with either PatD or TruD) and N-terminally cleaved PatE2/PatE2K with 20 μM PatGmac for 24 hours at 37° C. in 20 mM Bicine pH 8.1, 500 mM NaCl, 5% DMSO to complete the reaction. Completeness of the reaction was confirmed by LCT-ESI MS (FIG. 16). […] PatGmac is also highly expressed in E. coli with between 200 and 250 mg purified protein obtained per liter of culture. The final macrocycles were purified by HPLC on a C18 peptide column. PatD and TruD heterocyclised macrocycles were subjected to HRMS and their structures confirmed by fragmentation (see FIGS. 19 to 21; Table 3). NMR analysis was carried out on TruD and PatD heterocyclised macrocycles, as shown in FIGS. 20 and 21) (Tables 7 and 8).

[…] [4] = rates reported to date; cited from earlier work
[5] = 100 μM peptide, 50 μM enzyme, 120 h at 37° C.
[6] = 500 mM NaCl and 5% DMSO at pH 8

B1: PatGmac: macrocyclase domain of PatG, residues 492-851 (protein)
chain: GEDEIESAGVSASEVESSATKQKVALHPHDLDERIPGLADLHNQTLGDPQITIVIIDGDPDYTLSCFEGAEVSKVFPYWHEPAEPITPEDYAAFQSIRDQGLKGKEKEEALEAVIPDTKDRIVLNDHACHVTSTIVGQEHSPVFGIAPNCRVINMPQDAVIRGNYDDVMSPLNLARAIDLALELGANIIHCAFCRPTQTSEGEEILVQAIKKCQDNNVLIVSPTGNNSNESWCLPAVLPGTLAVGAAKVDGTPCHFSNWGGNNTKEGILAPGEEILGAQPCTEEPVRLTGTSMAAPVMTGISALLMSLQVQQGKPVDAEAVRTALLKTAIPCDPEVVEEPERCLRGFVNIPGAMKVLFGQ
- product formed (macrocyclized vs linear) ([…] [1]): only macrocyclized product
- Cyclic ion count (%) (M + H = 699) ([…] [1]; [5]): 100%
- Linear ion count (%) (M + H = 717) ([…] [1]; [5]): 0%
- Unprocessed ion count (%) (M + H = 1123) ([…] [1]; [5]): 0%
- ratio of macrocyclized and linear products with VGAGIGFPAYRG ([…] [2]): equal amounts of macrocyclized and linear products
- reaction rate with VGAGIGFPAYRG ([…] [2]): reacted extremely slowly
- linearized VGAGIGFP byproduct ([…] [3]; [6]): about 7%
- reaction rate increase ([…] [3]; [6]): over 50 times
- rate change on increasing sodium chloride ([…] [3]; NaCl from 150 mM to 500 mM): greater than an order of magnitude improvement in rate
- rate change on increasing pH ([…] [3]; pH from 8 to 9, 500 mM NaCl): further tripled the rate
- macrocyclized (ion count analysis) (PatE2/PatE2K): 100%
- turnover rate ([…] [4]): ~1 per day
